The target in the test is extracellular domain of SARS‐CoV‐2 spike protein (ECD) (SARS‐CoV‐2, UniProt P0DTC2 14-1213). The experiment in a line: ELISA.

The values below come from PMC9144876 (Protein Science : A Publication of the Protein Society, 2022).

B1: h‐deface2 (designed binder)
chain: EFHGPSWCLTPADRGLCRANENRFYYNSVIGKCRPFKYSGCGGNENNFTSKDKCLHECKKG
B1: the Kd was determined as 54.4 nM.
